Measurements published in publication PMC8246471.

Target: PriA helicase (UniProt P17888 1-732)
Assay: ATPase DNA titration

Sequence of PriA helicase (P17888 whole entry): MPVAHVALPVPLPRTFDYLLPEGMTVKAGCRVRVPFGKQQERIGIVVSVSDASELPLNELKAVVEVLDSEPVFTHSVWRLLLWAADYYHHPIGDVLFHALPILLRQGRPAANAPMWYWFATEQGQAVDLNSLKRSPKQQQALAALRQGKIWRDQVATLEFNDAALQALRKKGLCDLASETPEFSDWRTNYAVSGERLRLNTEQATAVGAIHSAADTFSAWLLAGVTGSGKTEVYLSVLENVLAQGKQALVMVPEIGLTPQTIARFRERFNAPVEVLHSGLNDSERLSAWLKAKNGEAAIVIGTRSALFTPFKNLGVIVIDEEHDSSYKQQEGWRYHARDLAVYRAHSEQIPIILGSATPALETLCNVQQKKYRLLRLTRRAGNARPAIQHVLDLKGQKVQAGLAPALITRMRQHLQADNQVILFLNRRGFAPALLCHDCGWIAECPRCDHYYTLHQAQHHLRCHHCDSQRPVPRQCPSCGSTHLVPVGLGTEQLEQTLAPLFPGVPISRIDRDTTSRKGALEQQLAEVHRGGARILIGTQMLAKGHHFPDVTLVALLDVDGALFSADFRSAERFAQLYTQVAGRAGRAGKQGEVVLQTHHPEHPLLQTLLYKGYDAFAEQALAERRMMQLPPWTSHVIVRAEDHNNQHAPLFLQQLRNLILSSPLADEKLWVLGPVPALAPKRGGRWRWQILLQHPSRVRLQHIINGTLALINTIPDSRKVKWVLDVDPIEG

B1: Fork 1 (mixed)
DNA 1: CTAGAGACGCTGCCGAATTCTGGCTTGGATCTGATGCTGTCTAGAGGCCTCCACTATGAAATCGCTGCA
DNA 2: CCGGGCTGCAGAGCTCATAGATCGATAGTCTCTAGACAGCATCAGATCCAAGCCAGAATTCGGCAGCGTCT
- apparent K (half saturation): 5.7 ± 0.7 nM
